Where no end group is shown, it is not given here.

The values below come from PMC12339391, “PEX39 facilitates the peroxisomal import of PTS2-containing proteins” (Nature Cell Biology, 2025).

The target in test [1] is T1, FLAG-PEX7 (recombinant N-terminally FLAG-tagged human PEX7) (human, UniProt O00628 1-323).
T1 construct: PEX7, human; also called recombinant human FLAG-tagged PEX7; source: Hi5 insect cells (baculovirus, pACEBac1), purified (anti-FLAG M2 beads, FLAG peptide elution); not shown: FLAG, N-terminal, kept
T1 sequence (looked up): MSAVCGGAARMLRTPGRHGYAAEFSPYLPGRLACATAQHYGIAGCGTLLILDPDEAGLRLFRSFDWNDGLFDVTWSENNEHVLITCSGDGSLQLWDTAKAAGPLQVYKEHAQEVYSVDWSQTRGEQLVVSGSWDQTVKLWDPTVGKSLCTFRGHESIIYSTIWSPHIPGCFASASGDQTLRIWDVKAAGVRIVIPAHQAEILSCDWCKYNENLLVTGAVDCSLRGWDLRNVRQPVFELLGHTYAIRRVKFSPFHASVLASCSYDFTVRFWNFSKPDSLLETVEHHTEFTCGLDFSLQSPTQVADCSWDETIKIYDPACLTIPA
The experiment in a line: native gel or EMSA; only recombinant proteins, two at a time (approximately 5 µg each of FLAG-PEX7, GST-HsPEX39, His-PEX5(1–324), His-PHYH); Coomassie staining; excised bands immunoblotted. Particulars: both partners purified.

Test [2] has as its target T1, FLAG-PEX7 (recombinant N-terminally …). The experiment in a line: SEC; Superdex 200 Increase 3.2/300, 50 mM Tris-HCl pH 7.5, 150 mM NaCl, 1 mM EDTA; proteins (10–15 µg) alone or mixed, 15 min at 23 °C before injection; fractions on SDS-PAGE. Particulars: both partners purified.

B1: GST-HsPEX39 (N-terminally GST-tagged human PEX39, C6ORF226) (natural protein, UniProt Q5I0X4 1-101, looked up)
chain: MERPRSPQCSAPASASASVTLAQLLQLVQQGQELPGLEKRHIAAIHGEPTASRLPRRPKPWEAAALAESLPPPTLRIGTAPAEPGLVEAATAPSSWHTVGP
notes: HsPEX39 (C6ORF226), human; plasmid pGEX-HsPEX39 (pGEX-6-P1); 101 residues by the printed limits of the 48–101 variant; also called recombinant HsPEX39; wild-type (WT) HsPEX39; source: E. coli BL21(DE3), purified (Glutathione Sepharose 4B); not shown: GST, N-terminal, kept
Turning to B1, in test [1], the binding result is “binds”.

B2: NtPEX13 (HsPEX13 residues 1–36 fused to Sumo1 with a hexa-histidine tag) (domain or fragment, human, UniProt Q92968 1-36, looked up)
chain: MASQPPPPPKPWETRRIPGAGPGPGPGPTFQSADLG
modifications: also: fused to Sumo1 with a hexa-histidine tag
notes: PEX13, human, residues 1–36; also called NtPEX13.Sumo.His; PEX13 N terminus; source: recombinant (plasmid pET23a-NtPEX13.Sumo.His); not shown: His6, C-terminal, kept
For the molecule B2, the binding result in test [2] is on record as “binds”.
